# Experimental data from IntAct's records for PubMed 35512704.
# B1: Mothers against decapentaplegic homolog 4 (Homo sapiens), Q13485 (parent)
# chain: MDNMSITNTPTSNDACLSIVHSLMCHRQGGESETFAKRAIESLVKKLKEKKDELDSLITAITTNGAHPSKCVTIQRTLDGRLQVAGRKGFPHVIYARLWRWPDLHKNELKHVKYCQYAFDLKCDSVCVNPYHYERVVSPGIDLSGLTLQSNAPSSMMVKDEYVHDFEGQPSLSTEGHSIQTIQHPPSNRASTETYSTPALLAPSESNATSTANFPNIPVASTSQPASILGGSHSEGLLQIASGPQPGQQQNGFTGQPATYHHNSTTTWTGSRTAPYTPNLPHHQNGHLQHHPPMPPHPGHYWPVHNELAFQPPISNHPAPEYWCSIAYFEMDVQVGETFKVPSSCPIVTVDGYVDPSGGDRFCLGQLSNVHRTEAIERARLHIGKGVQLECKGEGDVWVRCLSDHAVFVQSYYLDREAGRAPGDAVHKIYPSAYIKVFDLRQCHRQMQQQAATAQAAAAAQAAAVAGNIPGPGSVGGIAPAISLSAAAGIGVDDLRRLCILRMSFVKGWGPDYPRQSIKETPCWIEIHLHRALQLLDEVLHTMPIADPQPLD
# partner: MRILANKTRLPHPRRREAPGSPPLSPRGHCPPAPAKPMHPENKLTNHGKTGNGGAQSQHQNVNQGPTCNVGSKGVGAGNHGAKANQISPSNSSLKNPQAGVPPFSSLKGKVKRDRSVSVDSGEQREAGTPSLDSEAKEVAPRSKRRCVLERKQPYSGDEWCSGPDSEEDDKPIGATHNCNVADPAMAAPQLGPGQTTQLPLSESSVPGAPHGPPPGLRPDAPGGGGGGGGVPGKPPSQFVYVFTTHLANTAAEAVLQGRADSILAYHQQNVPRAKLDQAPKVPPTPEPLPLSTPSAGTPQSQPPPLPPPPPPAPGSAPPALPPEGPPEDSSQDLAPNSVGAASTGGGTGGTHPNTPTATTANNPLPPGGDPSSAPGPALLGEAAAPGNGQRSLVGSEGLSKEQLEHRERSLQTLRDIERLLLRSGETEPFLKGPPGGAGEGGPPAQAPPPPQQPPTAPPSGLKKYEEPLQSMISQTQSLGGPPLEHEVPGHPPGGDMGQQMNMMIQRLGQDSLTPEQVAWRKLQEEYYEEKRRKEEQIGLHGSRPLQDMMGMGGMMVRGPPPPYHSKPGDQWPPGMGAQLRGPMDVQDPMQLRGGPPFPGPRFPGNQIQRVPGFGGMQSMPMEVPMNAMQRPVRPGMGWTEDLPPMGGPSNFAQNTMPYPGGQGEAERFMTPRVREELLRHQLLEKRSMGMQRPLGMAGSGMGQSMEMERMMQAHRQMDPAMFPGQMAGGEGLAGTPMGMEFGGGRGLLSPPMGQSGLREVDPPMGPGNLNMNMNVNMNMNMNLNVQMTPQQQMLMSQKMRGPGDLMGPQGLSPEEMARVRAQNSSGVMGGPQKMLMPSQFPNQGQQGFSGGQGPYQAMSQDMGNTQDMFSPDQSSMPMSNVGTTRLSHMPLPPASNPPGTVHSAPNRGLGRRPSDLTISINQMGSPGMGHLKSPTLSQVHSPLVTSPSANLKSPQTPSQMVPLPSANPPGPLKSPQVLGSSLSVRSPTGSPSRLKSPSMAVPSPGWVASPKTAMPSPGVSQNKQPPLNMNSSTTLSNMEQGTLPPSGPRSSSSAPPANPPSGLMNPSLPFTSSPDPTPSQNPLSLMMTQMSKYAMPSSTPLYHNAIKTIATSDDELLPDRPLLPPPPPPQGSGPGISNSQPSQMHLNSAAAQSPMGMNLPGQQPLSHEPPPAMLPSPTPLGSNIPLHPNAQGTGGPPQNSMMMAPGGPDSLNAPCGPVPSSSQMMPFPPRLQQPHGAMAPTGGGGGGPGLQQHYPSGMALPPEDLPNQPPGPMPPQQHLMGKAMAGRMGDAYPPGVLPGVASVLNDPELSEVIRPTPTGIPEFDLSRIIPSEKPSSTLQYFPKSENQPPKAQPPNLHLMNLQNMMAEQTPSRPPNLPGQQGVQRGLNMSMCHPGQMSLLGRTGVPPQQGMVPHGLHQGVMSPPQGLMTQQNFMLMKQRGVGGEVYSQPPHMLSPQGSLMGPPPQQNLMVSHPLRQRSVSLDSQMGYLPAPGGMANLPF
# B2: Mothers against decapentaplegic homolog 4 (Homo sapiens), Q13485 (parent)
# chain: B1 chain
# partner: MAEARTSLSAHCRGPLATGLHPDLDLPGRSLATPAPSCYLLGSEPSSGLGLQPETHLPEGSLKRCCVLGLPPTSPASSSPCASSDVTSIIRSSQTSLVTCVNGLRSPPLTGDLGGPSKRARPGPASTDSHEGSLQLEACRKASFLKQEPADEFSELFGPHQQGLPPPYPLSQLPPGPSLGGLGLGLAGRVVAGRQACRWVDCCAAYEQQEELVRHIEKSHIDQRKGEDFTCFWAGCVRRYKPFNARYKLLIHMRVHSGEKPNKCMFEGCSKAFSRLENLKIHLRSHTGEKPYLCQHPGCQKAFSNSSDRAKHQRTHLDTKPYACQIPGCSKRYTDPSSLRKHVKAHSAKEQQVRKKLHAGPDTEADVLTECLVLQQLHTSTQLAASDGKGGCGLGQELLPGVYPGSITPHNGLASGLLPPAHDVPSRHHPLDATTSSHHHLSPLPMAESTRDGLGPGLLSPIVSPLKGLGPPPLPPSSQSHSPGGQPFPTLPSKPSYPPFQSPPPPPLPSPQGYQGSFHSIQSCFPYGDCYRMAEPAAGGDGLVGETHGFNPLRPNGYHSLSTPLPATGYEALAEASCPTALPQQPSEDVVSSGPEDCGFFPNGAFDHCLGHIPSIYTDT
# B3: Mothers against decapentaplegic homolog 4 (Homo sapiens), Q13485 (parent)
# chain: B1 chain
# partner: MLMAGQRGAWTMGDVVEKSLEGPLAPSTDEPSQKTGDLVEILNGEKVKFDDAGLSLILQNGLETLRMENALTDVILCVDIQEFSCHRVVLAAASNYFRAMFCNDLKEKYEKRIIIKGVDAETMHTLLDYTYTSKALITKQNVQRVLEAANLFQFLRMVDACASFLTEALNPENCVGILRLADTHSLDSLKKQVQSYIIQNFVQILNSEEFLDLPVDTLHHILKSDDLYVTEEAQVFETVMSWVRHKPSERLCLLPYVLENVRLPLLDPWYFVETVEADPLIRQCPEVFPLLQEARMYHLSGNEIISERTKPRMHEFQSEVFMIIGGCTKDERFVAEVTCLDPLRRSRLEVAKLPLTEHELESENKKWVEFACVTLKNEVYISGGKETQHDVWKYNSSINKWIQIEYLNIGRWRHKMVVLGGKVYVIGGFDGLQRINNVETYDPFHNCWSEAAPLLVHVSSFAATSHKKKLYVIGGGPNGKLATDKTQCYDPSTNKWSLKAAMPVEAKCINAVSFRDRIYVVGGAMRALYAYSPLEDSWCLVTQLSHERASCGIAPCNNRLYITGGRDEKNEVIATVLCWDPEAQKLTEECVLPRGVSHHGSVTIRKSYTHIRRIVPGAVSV
# Variants of: B1
# Conditions: with bcl9l_human BCL9L
row,effect of a mutation on the interaction,Variant
1,with no effect,R361C

# Variants of: B1
# Conditions: with bcl9l_human BCL9L
# Remark: another data set of the same source
row,effect of a mutation on the interaction,Variant
1,with no effect,R361H

# Variants of: B1
# Conditions: with bcl9l_human BCL9L
# Remark: another data set of the same source
row,effect of a mutation on the interaction,Variant
1,with no effect,D351H

# Variants of: B1
# Conditions: with bcl9l_human BCL9L
# Remark: another data set of the same source
row,effect of a mutation on the interaction,Variant
1,with no effect,G386D

# Variants of: B2
# Conditions: with glis1_human GLIS1, Q8NBF1
row,effect of a mutation on the interaction,Variant
1,with no effect,G386D

# Variants of: B2
# Conditions: with glis1_human GLIS1, Q8NBF1
# Remark: another data set of the same source
row,effect of a mutation on the interaction,Variant
1,with no effect,D351H

# Variants of: B2
# Conditions: with glis1_human GLIS1, Q8NBF1
# Remark: another data set of the same source
row,effect of a mutation on the interaction,Variant
1,with no effect,R361H

# Variants of: B3
# Conditions: with klhl6_human KLHL6, Q8WZ60
row,effect of a mutation on the interaction,Variant
1,with no effect,R361C

# Variants of: B3
# Conditions: with klhl6_human KLHL6, Q8WZ60
# Remark: another data set of the same source
row,effect of a mutation on the interaction,Variant
1,with no effect,R361H

# Variants of: B3
# Conditions: with klhl6_human KLHL6, Q8WZ60
# Remark: another data set of the same source
row,effect of a mutation on the interaction,Variant
1,with no effect,G386D

# Variants of: B3
# Conditions: with klhl6_human KLHL6, Q8WZ60
# Remark: another data set of the same source
row,effect of a mutation on the interaction,Variant
1,causing an interaction,G386D

# Variants of: B3
# Conditions: with klhl6_human KLHL6, Q8WZ60
# Remark: another data set of the same source
row,effect of a mutation on the interaction,Variant
1,with no effect,D351H
